Experiments:
[1] = biological target: human CD20 (human) (UniProt P11836); assay: cell-based or functional assay
[2] = biological target: human CD20 (human) (UniProt P11836); assay: FACS titration on SB cells expressing CD20, 3 h at 4 C, nonlinear fit of geometric mean fluorescence

Chain of human CD20 (human) (P11836 whole entry): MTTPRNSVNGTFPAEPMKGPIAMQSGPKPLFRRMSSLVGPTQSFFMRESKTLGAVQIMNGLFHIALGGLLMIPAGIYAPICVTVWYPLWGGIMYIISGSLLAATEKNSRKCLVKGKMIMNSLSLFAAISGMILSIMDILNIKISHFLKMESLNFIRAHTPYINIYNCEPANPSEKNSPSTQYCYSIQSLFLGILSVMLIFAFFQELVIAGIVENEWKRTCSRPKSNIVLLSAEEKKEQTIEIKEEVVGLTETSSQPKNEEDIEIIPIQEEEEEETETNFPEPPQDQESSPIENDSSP

With “Rituxan (Rituximab), Genentech (antibody)” the % Lysis Daudi 0.001 µg/ml ADCC [1] was 33%, the % Lysis Daudi 1 µg/ml ADCC [1] was 95% and the % Lysis Raji 0.001 µg/ml ADCC [1] was 16%. For the same substance, the % Lysis Raji 1 µg/ml ADCC [1] was 62%, the % Lysis Ramos 0.001 µg/ml ADCC [1] was 5% and the % Lysis Ramos 1 µg/ml ADCC [1] was 78%. The EC50 Daudi CDC [1] was 1.56 µg/mL, the EC50 Raji CDC [1] was 0.31 µg/mL and the EC50 Ramos Apoptosis Alamar Blue [1] was 0.222 µg/mL. For the same substance, the EC50 Ramos Apoptosis Annexin V [1] was 2.59 µg/mL, the EC50 Ramos Apoptosis Cell Titer Glo [1] was 0.576 µg/mL and the EC50 Ramos Apoptosis WST-1 [1] was 0.0326 µg/mL. It also gave an EC50 Ramos CDC [1] of 0.43 µg/mL and a Kd [2] of 8.1 nM.
